Experimental findings from FireProtDB (doi:10.1021/bi034721x) are described below.

Values joined by “and” are separate entries in the source; they are usually repeats but may differ in a detail not shown here. Equal values may be shown once.

The conditions of this series: Rattus norvegicus; pH 7.4; Thermal; DSC; sodium phosphate 10 mM; NaCl 0.20 M; whole UniProt chain shown.

B1: Parvalbumin alpha wild type, P02625 (protein)
chain: MSMTDLLSAEDIKKAIGAFTAADSFDHKKFFQMVGLKKKSADDVKKVFHILDKDKSGFIEEDELGSILKGFSSDARDLSAKETKTLMAAGDKDGDGKIGVEEFSTLVAES
Take B1: the “unfolding enthalpy (calorimetric)” value is 76 kcal/mol and 72 kcal/mol and 52 kcal/mol.
